Target: T1, CD3ε homodimer protein (human, UniProt P07766 23-126, limits assumed)
T1 construct: also called CD3 (CD3ε)
Experiment: SPR Biacore T200, CD3ε homodimer on chip;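 further: Light-chain single-residue variant antibodies injected over amine-coupled CD3ε homodimer on a CM4 chip at 25 °C, bound amount divided by that of the GLS3000-containing antibody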
Procedure: Each one-amino acid altered form constructed, expressed, and purified in the paragraph (6-2) was evaluated using Biacore T200 (GE Healthcare Japan Corp.). An appropriate amount of CD3ε homodimer protein was immobilized onto Sensor chip CM4 (GE Healthcare Japan Corp.) by the amine coupling method. Then, the antibody having an appropriate concentration was injected thereto as an analyte and allowed to interact with the CD3ε homodimer protein on the sensor chip. Then, the sensor chip was regenerated by the injection of 10 mmol/L glycine-HCl (pH 1.5). The assay was conducted at 25° C., and HBS-EP+ (GE Healthcare Japan Corp.) was used as a running buffer. […] Each parameter was calculated using Biacore T200 Evaluation Software (GE Healthcare Japan Corp.).
Specifically, when the amount of the GLS3000-containing antibody bound was defined as X and the amount of the L chain one-amino acid altered form bound was defined as Y, a value of Z (ratio of amounts bound)=Y/X was used.

T1 sequence (P07766 23-126 limits assumed): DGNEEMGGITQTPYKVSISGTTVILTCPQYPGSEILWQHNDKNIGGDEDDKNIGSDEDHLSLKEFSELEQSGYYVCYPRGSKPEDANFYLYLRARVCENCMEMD

| Binder | ratio of amount bound vs unaltered GLS3000 |
| --- | --- |
| GLS3000 H27dK one-arm antibody (antibody, human IgG1, kappa, L234A L235A, N297A, name in Kabat numbering) heavy: QVQLVESGGGVVQPGRSLRLSCAASGFTFSNAWMHWVRQAPGKGLEWVAQIKAKSNNYATYYAESVKGRFTISRDDSKNSLYLQMNSLKTEDTAVYYCRYVHYGAYYGVDAWGQGTTVTVSSASTKGPSVFPLAPSSKSTSGGTAALGCLVKDYFPEPVTVSWNSGALTSGVHTFPAVLQSSGLYSLSSVVTVPSSSLGTQTYICNVNHKPSNTKVDKKVEPKSCDKTHTCPPCPAPEAAGGPSVFLFPPKPKDTLMISRTPEVTCVVVDVSHEDPEVKFNWYVDGVEVHNAKTKPREEQYASTYRVVSVLTVLHQDWLNGKEYKCKVSNKALPAPIEKTISKAKGQPREPQVYTLPPSRCELTKNQVSLSCAVKGFYPSDIAVEWESNGQPENNYKTTPPVLDSDGSFFLVSKLTVDKSRWQQGNVFSCSVMHEALHNHYTQKSLSLSPDYKDDDDK EPKSSDKTHTCPPCPAPELLGGPSVFLFPPKPKDTLMISRTPEVTCVVVDVSHEDPEVKFNWYVDGVEVHNAKTKPREEQYNSTYRVVSVLTVLHQDWLNGKEYKCKVSNKALPAPIEKTISKAKGQPREPQVCTLPPSRDELTKNQVSLWCLVKGFYPSDIAVEWESNGQPENNYKTTPPVLDSDGSFFLYSKLTVDKSRWQQGNVFSCSVMHEALHNRYTQKSLSLSP light: DIVMTQSPLSLPVTPGEPASISCRSSQSLVKSNRNTYLHWYQQKPGQAPRLLIYKVSNRFSGVPDRFSGSGSGTDFTLKISRVEAEDVGVYYCGQGTQVPYTFGQGTKLEIKRTVAAPSVFIFPPSDEQLKSGTASVVCLLNNFYPREAKVQWKVDNALQSGNSQESVTEQDSKDSTYSLSSTLTLSKADYEKHKVYACEVTHQGLSSPVTKSFNRGEC | 0.29 |
| GLS3000 H27dP one-arm antibody (antibody, human IgG1, kappa, L234A L235A, N297A, name in Kabat numbering) heavy: QVQLVESGGGVVQPGRSLRLSCAASGFTFSNAWMHWVRQAPGKGLEWVAQIKAKSNNYATYYAESVKGRFTISRDDSKNSLYLQMNSLKTEDTAVYYCRYVHYGAYYGVDAWGQGTTVTVSSASTKGPSVFPLAPSSKSTSGGTAALGCLVKDYFPEPVTVSWNSGALTSGVHTFPAVLQSSGLYSLSSVVTVPSSSLGTQTYICNVNHKPSNTKVDKKVEPKSCDKTHTCPPCPAPEAAGGPSVFLFPPKPKDTLMISRTPEVTCVVVDVSHEDPEVKFNWYVDGVEVHNAKTKPREEQYASTYRVVSVLTVLHQDWLNGKEYKCKVSNKALPAPIEKTISKAKGQPREPQVYTLPPSRCELTKNQVSLSCAVKGFYPSDIAVEWESNGQPENNYKTTPPVLDSDGSFFLVSKLTVDKSRWQQGNVFSCSVMHEALHNHYTQKSLSLSPDYKDDDDK EPKSSDKTHTCPPCPAPELLGGPSVFLFPPKPKDTLMISRTPEVTCVVVDVSHEDPEVKFNWYVDGVEVHNAKTKPREEQYNSTYRVVSVLTVLHQDWLNGKEYKCKVSNKALPAPIEKTISKAKGQPREPQVCTLPPSRDELTKNQVSLWCLVKGFYPSDIAVEWESNGQPENNYKTTPPVLDSDGSFFLYSKLTVDKSRWQQGNVFSCSVMHEALHNRYTQKSLSLSP light: DIVMTQSPLSLPVTPGEPASISCRSSQSLVPSNRNTYLHWYQQKPGQAPRLLIYKVSNRFSGVPDRFSGSGSGTDFTLKISRVEAEDVGVYYCGQGTQVPYTFGQGTKLEIKRTVAAPSVFIFPPSDEQLKSGTASVVCLLNNFYPREAKVQWKVDNALQSGNSQESVTEQDSKDSTYSLSSTLTLSKADYEKHKVYACEVTHQGLSSPVTKSFNRGEC | 0.24 |
| GLS3000 H27dN one-arm antibody (antibody, human IgG1, kappa, L234A L235A, N297A, name in Kabat numbering) heavy: QVQLVESGGGVVQPGRSLRLSCAASGFTFSNAWMHWVRQAPGKGLEWVAQIKAKSNNYATYYAESVKGRFTISRDDSKNSLYLQMNSLKTEDTAVYYCRYVHYGAYYGVDAWGQGTTVTVSSASTKGPSVFPLAPSSKSTSGGTAALGCLVKDYFPEPVTVSWNSGALTSGVHTFPAVLQSSGLYSLSSVVTVPSSSLGTQTYICNVNHKPSNTKVDKKVEPKSCDKTHTCPPCPAPEAAGGPSVFLFPPKPKDTLMISRTPEVTCVVVDVSHEDPEVKFNWYVDGVEVHNAKTKPREEQYASTYRVVSVLTVLHQDWLNGKEYKCKVSNKALPAPIEKTISKAKGQPREPQVYTLPPSRCELTKNQVSLSCAVKGFYPSDIAVEWESNGQPENNYKTTPPVLDSDGSFFLVSKLTVDKSRWQQGNVFSCSVMHEALHNHYTQKSLSLSPDYKDDDDK EPKSSDKTHTCPPCPAPELLGGPSVFLFPPKPKDTLMISRTPEVTCVVVDVSHEDPEVKFNWYVDGVEVHNAKTKPREEQYNSTYRVVSVLTVLHQDWLNGKEYKCKVSNKALPAPIEKTISKAKGQPREPQVCTLPPSRDELTKNQVSLWCLVKGFYPSDIAVEWESNGQPENNYKTTPPVLDSDGSFFLYSKLTVDKSRWQQGNVFSCSVMHEALHNRYTQKSLSLSP light: DIVMTQSPLSLPVTPGEPASISCRSSQSLVNSNRNTYLHWYQQKPGQAPRLLIYKVSNRFSGVPDRFSGSGSGTDFTLKISRVEAEDVGVYYCGQGTQVPYTFGQGTKLEIKRTVAAPSVFIFPPSDEQLKSGTASVVCLLNNFYPREAKVQWKVDNALQSGNSQESVTEQDSKDSTYSLSSTLTLSKADYEKHKVYACEVTHQGLSSPVTKSFNRGEC | 0.3 |
| GLS3000 H27dQ one-arm antibody (antibody, human IgG1, kappa, L234A L235A, N297A, name in Kabat numbering) heavy: QVQLVESGGGVVQPGRSLRLSCAASGFTFSNAWMHWVRQAPGKGLEWVAQIKAKSNNYATYYAESVKGRFTISRDDSKNSLYLQMNSLKTEDTAVYYCRYVHYGAYYGVDAWGQGTTVTVSSASTKGPSVFPLAPSSKSTSGGTAALGCLVKDYFPEPVTVSWNSGALTSGVHTFPAVLQSSGLYSLSSVVTVPSSSLGTQTYICNVNHKPSNTKVDKKVEPKSCDKTHTCPPCPAPEAAGGPSVFLFPPKPKDTLMISRTPEVTCVVVDVSHEDPEVKFNWYVDGVEVHNAKTKPREEQYASTYRVVSVLTVLHQDWLNGKEYKCKVSNKALPAPIEKTISKAKGQPREPQVYTLPPSRCELTKNQVSLSCAVKGFYPSDIAVEWESNGQPENNYKTTPPVLDSDGSFFLVSKLTVDKSRWQQGNVFSCSVMHEALHNHYTQKSLSLSPDYKDDDDK EPKSSDKTHTCPPCPAPELLGGPSVFLFPPKPKDTLMISRTPEVTCVVVDVSHEDPEVKFNWYVDGVEVHNAKTKPREEQYNSTYRVVSVLTVLHQDWLNGKEYKCKVSNKALPAPIEKTISKAKGQPREPQVCTLPPSRDELTKNQVSLWCLVKGFYPSDIAVEWESNGQPENNYKTTPPVLDSDGSFFLYSKLTVDKSRWQQGNVFSCSVMHEALHNRYTQKSLSLSP light: DIVMTQSPLSLPVTPGEPASISCRSSQSLVQSNRNTYLHWYQQKPGQAPRLLIYKVSNRFSGVPDRFSGSGSGTDFTLKISRVEAEDVGVYYCGQGTQVPYTFGQGTKLEIKRTVAAPSVFIFPPSDEQLKSGTASVVCLLNNFYPREAKVQWKVDNALQSGNSQESVTEQDSKDSTYSLSSTLTLSKADYEKHKVYACEVTHQGLSSPVTKSFNRGEC | 0.25 |
| GLS3000 H27dM one-arm antibody (antibody, human IgG1, kappa, L234A L235A, N297A, name in Kabat numbering) heavy: QVQLVESGGGVVQPGRSLRLSCAASGFTFSNAWMHWVRQAPGKGLEWVAQIKAKSNNYATYYAESVKGRFTISRDDSKNSLYLQMNSLKTEDTAVYYCRYVHYGAYYGVDAWGQGTTVTVSSASTKGPSVFPLAPSSKSTSGGTAALGCLVKDYFPEPVTVSWNSGALTSGVHTFPAVLQSSGLYSLSSVVTVPSSSLGTQTYICNVNHKPSNTKVDKKVEPKSCDKTHTCPPCPAPEAAGGPSVFLFPPKPKDTLMISRTPEVTCVVVDVSHEDPEVKFNWYVDGVEVHNAKTKPREEQYASTYRVVSVLTVLHQDWLNGKEYKCKVSNKALPAPIEKTISKAKGQPREPQVYTLPPSRCELTKNQVSLSCAVKGFYPSDIAVEWESNGQPENNYKTTPPVLDSDGSFFLVSKLTVDKSRWQQGNVFSCSVMHEALHNHYTQKSLSLSPDYKDDDDK EPKSSDKTHTCPPCPAPELLGGPSVFLFPPKPKDTLMISRTPEVTCVVVDVSHEDPEVKFNWYVDGVEVHNAKTKPREEQYNSTYRVVSVLTVLHQDWLNGKEYKCKVSNKALPAPIEKTISKAKGQPREPQVCTLPPSRDELTKNQVSLWCLVKGFYPSDIAVEWESNGQPENNYKTTPPVLDSDGSFFLYSKLTVDKSRWQQGNVFSCSVMHEALHNRYTQKSLSLSP light: DIVMTQSPLSLPVTPGEPASISCRSSQSLVMSNRNTYLHWYQQKPGQAPRLLIYKVSNRFSGVPDRFSGSGSGTDFTLKISRVEAEDVGVYYCGQGTQVPYTFGQGTKLEIKRTVAAPSVFIFPPSDEQLKSGTASVVCLLNNFYPREAKVQWKVDNALQSGNSQESVTEQDSKDSTYSLSSTLTLSKADYEKHKVYACEVTHQGLSSPVTKSFNRGEC | 0.3 |
| GLS3000 H27dL one-arm antibody (antibody, human IgG1, kappa, L234A L235A, N297A, name in Kabat numbering) heavy: QVQLVESGGGVVQPGRSLRLSCAASGFTFSNAWMHWVRQAPGKGLEWVAQIKAKSNNYATYYAESVKGRFTISRDDSKNSLYLQMNSLKTEDTAVYYCRYVHYGAYYGVDAWGQGTTVTVSSASTKGPSVFPLAPSSKSTSGGTAALGCLVKDYFPEPVTVSWNSGALTSGVHTFPAVLQSSGLYSLSSVVTVPSSSLGTQTYICNVNHKPSNTKVDKKVEPKSCDKTHTCPPCPAPEAAGGPSVFLFPPKPKDTLMISRTPEVTCVVVDVSHEDPEVKFNWYVDGVEVHNAKTKPREEQYASTYRVVSVLTVLHQDWLNGKEYKCKVSNKALPAPIEKTISKAKGQPREPQVYTLPPSRCELTKNQVSLSCAVKGFYPSDIAVEWESNGQPENNYKTTPPVLDSDGSFFLVSKLTVDKSRWQQGNVFSCSVMHEALHNHYTQKSLSLSPDYKDDDDK EPKSSDKTHTCPPCPAPELLGGPSVFLFPPKPKDTLMISRTPEVTCVVVDVSHEDPEVKFNWYVDGVEVHNAKTKPREEQYNSTYRVVSVLTVLHQDWLNGKEYKCKVSNKALPAPIEKTISKAKGQPREPQVCTLPPSRDELTKNQVSLWCLVKGFYPSDIAVEWESNGQPENNYKTTPPVLDSDGSFFLYSKLTVDKSRWQQGNVFSCSVMHEALHNRYTQKSLSLSP light: DIVMTQSPLSLPVTPGEPASISCRSSQSLVLSNRNTYLHWYQQKPGQAPRLLIYKVSNRFSGVPDRFSGSGSGTDFTLKISRVEAEDVGVYYCGQGTQVPYTFGQGTKLEIKRTVAAPSVFIFPPSDEQLKSGTASVVCLLNNFYPREAKVQWKVDNALQSGNSQESVTEQDSKDSTYSLSSTLTLSKADYEKHKVYACEVTHQGLSSPVTKSFNRGEC | 0.3 |
